B1: Interferon regulatory factor 3 (Homo sapiens), Q14653 (parent)
chain: MGTPKPRILPWLVSQLDLGQLEGVAWVNKSRTRFRIPWKHGLRQDAQQEDFGIFQAWAEATGAYVPGRDKPDLPTWKRNFRSALNRKEGLRLAEDRSKDPHDPHKIYEFVNSGVGDFSQPDTSPDTNGGGSTSDTQEDILDELLGNMVLAPLPDPGPPSLAVAPEPCPQPLRSPSLDNPTPFPNLGPSENPLKRLLVPGEEWEFEVTAFYRGRQVFQQTISCPEGLRLVGSEVGDRTLPGWPVTLPDPGMSLTDRGVMSYVRHVLSCLGGGLALWRAGQWLWAQRLGHCHTYWAVSEELLPNSGHGPDGEVPKDKEGGVFDLGPFIVDLITFTEGSGRSPRYALWFCVGESWPQDQPWTKRLVMVKVVPTCLRALVEMARVGGASSLENTVDLHISNSHPLSLTSDQYKAYLQDLVEGMDFQGPGES

Variants of: B1
Settings: with cbp_human CREBBP

| effect of a mutation on the interaction | Variant |
| --- | --- |
| increasing interaction strength | S396D;S398D;S402D;T404D;S405D |

— IntAct's records for PubMed 20581830
